From patent US20150086555A1 (THERACLONE SCIENCES, published 2015)

B1: TCN-556 (5089_K12) (antibody, V domains shown)
VH: QVQLVQSGAEVKKPGASVKVSCKASGYTFIGYDMHWVRQAPGQGLEWMGWINAKRGGTNYAQKFQGRVTMTRDTSISTAYMELNSLRSDDTAVYYCARGVGSRTTIFGVLNPEFDYWGQGTLVTVSS
VL: QSALTQPPSASGSPGQSVTISCTGSSSDVGGYDYVSWYQQHPGKAPKLLIYEVTKRPSGVPDRFSGSKSGNTASLTVSGLQAEDEADYYCSSYAGNYNHVFGPGTKVTVL
B2: TCN-556 (5089_K12) (antibody, V domains shown)
VH: QVQLVQSGAEVKKPGASVKVSCKASGYTFIGYDMHWVRQAPGQGLEWMGWINAKRGGTNYAQKFQGRVTMTRDTSISTAYMELNSLRSDDTAVYYCARGVGSRTTIFGVLNPEFDYWGQGTLVTVSS
VL: QSALTQPPSASGSPGQSVTISCTGSSSDVGGYDYVSWYQQHPGKAPKLLIYEVTKRPSGVPDRFSGSKSGNTASLTVSGLQAEDEADYYCSSYAGNYNHVFGPGTKVTVL
B3: TCN-560 (5084_P10) (antibody, V domains shown)
VH: EVQLVESGGGLVQPGGSLRLSCAASGFIFRNYWMSWVRQAPGKGLEWVANIKQDGREKYYVDSLRGRVNISRDNAENSLYLHMNSLRVEDTAVYFCARARMVVVTGDGFDVWGHGTMVTVSS
VL: DIQMTQSPSSLSASVGDRVTITCRASQNIKRYFNWYQQKPGKAPKLLIYAASNLENGVPSRFSGSGSGTDFTLTISSLQPEDFATYYCQQSFSKSWTFGQGTNVDIK
B4: TCN-533 (5256_A17a) (antibody, V domains shown)
VH: QVQLVQSGADVKKPGSSVTVSCKASGGSFSNYGINWVRQAPGQGLEWMGGIIPLINAPNYAPKFQGRVTITADMFSNIVSLQLTSLRTDDTAVYYCARRKMTTAIDYWGQGTLVTVSS
VL: QPVLTQPPSASASLGASVTLTCTLSSAYSNYKVDWYQQRPGKGPRFVMRVGTGGIVGSKGDGIPDRFSVLGSGLNRYLTIKNIQEEDESDYHCGADHGSGSNFVSPYVFGGGTKLTVL
B5: TCN-533 (5256_A17a) (antibody, V domains shown)
VH: QVQLVQSGADVKKPGSSVTVSCKASGGSFSNYGINWVRQAPGQGLEWMGGIIPLINAPNYAPKFQGRVTITADMFSNIVSLQLTSLRTDDTAVYYCARRKMTTAIDYWGQGTLVTVSS
VL: QPVLTQPPSASASLGASVTLTCTLSSAYSNYKVDWYQQRPGKGPRFVMRVGTGGIVGSKGDGIPDRFSVLGSGLNRYLTIKNIQEEDESDYHCGADHGSGSNFVSPYVFGGGTKLTVL
B6: TCN-533 (5256_A17a) (antibody, V domains shown)
VH: QVQLVQSGADVKKPGSSVTVSCKASGGSFSNYGINWVRQAPGQGLEWMGGIIPLINAPNYAPKFQGRVTITADMFSNIVSLQLTSLRTDDTAVYYCARRKMTTAIDYWGQGTLVTVSS
VL: QPVLTQPPSASASLGASVTLTCTLSSAYSNYKVDWYQQRPGKGPRFVMRVGTGGIVGSKGDGIPDRFSVLGSGLNRYLTIKNIQEEDESDYHCGADHGSGSNFVSPYVFGGGTKLTVL

Assays:
[1] = target: recombinant soluble homotrimeric HA, A/common magpie/Hong Kong/5052/07 H5N1 (Influenza A virus A/common magpie/Hong …); experiment: microarray, transfection SN IgG, trimeric HA
[2] = target: recombinant homotrimeric HA A/common magpie/Hong Kong/5052/07 H5N1 (Influenza A virus A/common magpie/Hong …); experiment: protein microarray, purified IgG, trimeric HA
[3] = target: recombinant soluble homotrimeric HA of A/common magpie/Hong Kong/5052/07 (H5N1) (Influenza A virus A/common magpie/Hong …); experiment: trimeric HA microarray, transfection supernatant set 3
[4] = target: recombinant soluble homotrimeric HA of A/common magpie/Hong Kong/5052/07 (H5N1) (Influenza A virus A/common magpie/Hong …); experiment: HA microarray, BCC supernatant

Binder | Trimeric HA Binding: RLU [1] | Trimeric HA Binding: RLU [2] | also measured
B1 | 20100 RLU |  | 
B2 |  | 25600 RLU | 
B3 | 30500 RLU |  | 
B4 |  |  | Trimeric HA Binding: RLU [3]: 25200 RLU
B5 |  |  | Trimeric HA Binding: RLU [4]: 44500 RLU
B6 |  | 19000 RLU | 
